Patent publication US20250186614A1, “COMPACT DRUG RESPONSIVE DOMAINS FOR REGULATION OF FUNCTION/ABUNDANCE AND DELIVERY OF POLYPEPTIDE PAYLOADS” (OBSIDIAN THERAPEUTICS, INC., priority 2022, published 2025)
Positions count from the first letter of the chain named. Names may count otherwise. Read-outs that look alike come from different tables or passages of the source. Each block holds one molecule with its values, some of them ahead of it.

Experiments:
Type in all cases: cell-based
Jurkat cells [1] = experiment: Tacrolimus dose response of FKBP13-AcGFP-mCherry constructs stably transduced into Jurkat cells, GFP MFI by flow cytometry; design: Basal: unit not given here; conditions: for basal AcGFP expression: absence of tacrolimus
How it was run: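 GFP geometric MFI was read by flow cytometry in mCherry+ cells and curve-fitted against tacrolimus dose. Cells were Jurkat E6-1, lentivirus-transduced with FKBP13-AcGFP-mCherry fusion constructs until 10-25% mCherry-positive on day 5 post-transduction.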

Jurkat cells [2] = experiment: Sirolimus (rapamycin) dose response of FKBP13 constructs stably transduced into Jurkat cells, flow cytometry
Protocol: Normalized EC50 values were calculated from the mCherry normalized GFP MFI values, which accounted for any differences in mCherry intensity between samples.

[3] = Example 4: dose response of FKBP constructs 160-255, Ec50, Ec90 and fold change (raw and normalized to mCherry); conditions: for FC (fold change): fold change during initial analysis
Protocol: Additional experiments were performed for constructs FKBP-160-292.

[4] = FKBP constructs 160-255, not normalized, read-out: EC90
[5] = normalized to mCherry, read-out: EC90 (Norm)

- EC90 (Jurkat cells [1]; read-out: Tacrolimus EC90, tacrolimus, Table 14): 341 nM
- EC90 (Jurkat cells [2]; rapamycin, Table 14, read-out: Rapamycin EC90): 1520 nM
- EC50 (tacrolimus)/ EC50 (rapamycin) (Jurkat cells [2]; ratio of Table 7 and Table 8 EC50 values, Jurkat cells): 0.20
B1: FKBP-153: FKBP13 DRD Q72R, S79W, Q84E, A117W, M54A; SEQ ID NO: 103 (protein)
chain: HCPIKSRKGDVLHAHYTGKLEDGTEFDSSLPRNQPFVFWLGTGEVIKGWDQGLLGMCEGEKRKLVIPSELGYGERGWPPKIPGGATLVFEVELLKIER
modifications: Description of sequence: FKBP13-AcGFP-mCherry Fusion; Construct Name: FKBP-153; FKBP13 DRD in Construct : FKBP13 (mutated to match FKBP12 active site Q72RS79W Q84E A117W) (DRD M54A)
- EC90 (Jurkat cells [1]; read-out: Tacrolimus EC90 (Norm), tacrolimus, normalized, Table 14): 383 nM
- Fold Change (Jurkat cells [1]; tacrolimus, Jurkat cells stably transduced, Table 7): 30.07
- Tacrolimus FC (Jurkat cells [1]; tacrolimus, fold change, Table 14): 39.7
- Fold Change (Jurkat cells [2]; rapamycin (sirolimus), Jurkat cells stably transduced, Table 8): 4.8
- Rapamycin FC (Jurkat cells [2]; rapamycin, fold change, Table 14): 6.1
- EC90 (Jurkat cells [2]; rapamycin, normalized, Table 14, read-out: Rapamycin EC90 (Norm)): 1540 nM
- difference between rapamycin and tacrolimus (Jurkat cells [2]; ratio of EC50 and fold change, Table 9): largest difference between rapamycin and tacrolimus
- Fold change (tacrolimus)/ Fold change (rapamycin) (Jurkat cells [2]; ratio of Table 7 and Table 8 fold changes, Jurkat cells): 6.26

B2: FKBP-195: combinatorial FKBP13 mutant construct of Table 10, carries K135Y (protein)
chain: B1 chain with A14M, W39S, V45R, K95Y
modifications: Description of sequence: Construct Name: FKBP-195; Mutation(s): Q72R Q84E A117W V85R DRD K135Y
- Basal (Jurkat cells [1]; FIG. 39): 68.4
- FC (Jurkat cells [1]; FIG. 39): 90
- Peak (Jurkat cells [1]; FIG. 39): 5808
- Basal (Jurkat cells [1]; FIG. 50): 75.5
- FC (Jurkat cells [1]; FIG. 50): 61.07
- At 10 uM (Jurkat cells [1]; FIG. 50): 4611
- basal AcGFP expression (Jurkat cells [1]): lowest basal expression
- FC (Jurkat cells [1]; tacrolimus, FIG. 35): 89.61
- Peak (Jurkat cells [1]; tacrolimus, FIG. 35): 4362
- FC (Jurkat cells [1]; tacrolimus, FIG. 36): 89.61
- Peak (Jurkat cells [1]; tacrolimus, FIG. 36): 4362
- FC (Jurkat cells [1]; tacrolimus, FIG. 37): 89.61
- Peak (Jurkat cells [1]; tacrolimus, FIG. 37): 4362
- FC (Jurkat cells [1]; tacrolimus, FIG. 38): 89.61
- Peak (Jurkat cells [1]; tacrolimus, FIG. 38): 4362
- FC (Jurkat cells [1]; tacrolimus, FIGS. 29 and 30): 66
- FC (Jurkat cells [1]; tacrolimus, FIGS. 31 and 32): 66
- FC (Jurkat cells [1]; tacrolimus, FIGS. 33 and 34): 66
- EC90 [3, 4]: 165 nM
- FC (fold change) [3]: 50.1
- EC90 [3, 5]: 140 nM

B3: FKBP-196 (protein)
chain: B1 chain with A14M, W39S, V45R, I96V
modifications: Description of sequence: Construct Name: FKBP-196; Mutation(s): Q72R Q84E A117W V85R DRD I136V
- EC90 [3, 4]: 115 nM
- FC (fold change) [3]: 34.7
- EC90 [3, 5]: 113 nM

B4: FKBP-251: combinatorial FKBP13 mutant construct of Table 10 (protein)
chain: B1 chain with A14M, W39S, V45R, E90F
modifications: Description of sequence: Construct Name: FKBP-251; Mutation(s): Q72R Q84E A117W V85R DRD E130F
- Basal (Jurkat cells [1]; FIG. 40): 76
- FC (Jurkat cells [1]; FIG. 40): 100
- Peak (Jurkat cells [1]; FIG. 40): 7406
- Basal (Jurkat cells [1]; FIG. 46, BR1 (Biorep 1)): 64
- FC (Jurkat cells [1]; FIG. 46, BR1 (Biorep 1)): 97.61
- At 10 uM (Jurkat cells [1]; FIG. 46, BR1 (Biorep 1)): 6247
- Basal (Jurkat cells [1]; FIG. 46, BR2 (Biorep 2)): 46.1
- FC (Jurkat cells [1]; FIG. 46, BR2 (Biorep 2)): 76.79
- At 10 uM (Jurkat cells [1]; FIG. 46, BR2 (Biorep 2)): 3540
- basal AcGFP expression (Jurkat cells [1]): lowest basal expression
- FC (Jurkat cells [1]; tacrolimus, FIG. 35): 92.03
- Peak (Jurkat cells [1]; tacrolimus, FIG. 35): 5078
- FC (Jurkat cells [1]; tacrolimus, FIG. 36): 92.03
- Peak (Jurkat cells [1]; tacrolimus, FIG. 36): 5078
- FC (Jurkat cells [1]; tacrolimus, FIG. 37): 92.03
- Peak (Jurkat cells [1]; tacrolimus, FIG. 37): 5078
- FC (Jurkat cells [1]; tacrolimus, FIG. 38): 92.03
- Peak (Jurkat cells [1]; tacrolimus, FIG. 38): 5078
- EC90 [3, 4]: 104 nM
- FC (fold change) [3]: 97.5
- EC90 [3, 5]: 113 nM

B5: FKBP-161 (protein)
chain: B1 chain with A14S, W39S, V45R
modifications: Description of sequence: Construct Name: FKBP-161; Mutation(s): Q72R Q84E A117W DRD M54S V85R
- EC90 [3, 4]: 512 nM
- FC (fold change) [3]: 32.3
- EC90 [3, 5]: 541 nM

B6: FKBP-200: FKBP13 DRD-AcGFP construct of Table 10 (protein)
chain: B1 chain with A14M, D22S, W39S, V45R
modifications: Description of sequence: Construct Name: FKBP-200; Mutation(s): Q72R Q84E A117W V85R DRD D62S
- EC90 [3, 4]: 160 nM
- FC (fold change) [3]: 33.9
- EC90 [3, 5]: 150 nM

B7: FKBP-197: FKBP13 DRD-AcGFP construct of Table 10 (protein)
chain: B1 chain with A14M, W39S, V45R, E90R
modifications: Description of sequence: Construct Name: FKBP-197; Mutation(s): Q72R Q84E A117W V85R DRD E130R
- Basal (Jurkat cells [1]; FIG. 46, BR1 (Biorep 1)): 70.7
- FC (Jurkat cells [1]; FIG. 46, BR1 (Biorep 1)): 101.12
- At 10 uM (Jurkat cells [1]; FIG. 46, BR1 (Biorep 1)): 7149
- Basal (Jurkat cells [1]; FIG. 46, BR2 (Biorep 2)): 55.2
- FC (Jurkat cells [1]; FIG. 46, BR2 (Biorep 2)): 72.21
- At 10 uM (Jurkat cells [1]; FIG. 46, BR2 (Biorep 2)): 3986
- EC90 [3, 4]: 1090 nM
- FC (fold change) [3]: 101.1
- EC90 [3, 5]: 1190 nM
